In patent US20160263155A1, “T CELL RECEPTORS DIRECTED AGAINST THE PREFERENTIALLY EXPRESSED ANTIGEN OF MELANOMA AND USES THEREOF” (LEIDEN UNIVERSITY MEDICAL CENTER, priority 2015, published 2016):

Test system: chimeric Caspase-9 polypeptide
Test: Caspase mutant classes and basal activity (Table 3)
Type: cell-based, human
Settings: class heading of Table 3; for IC50: ligand IC50

Sequence of chimeric Caspase-9 polypeptide (as listed by the source, change not shown): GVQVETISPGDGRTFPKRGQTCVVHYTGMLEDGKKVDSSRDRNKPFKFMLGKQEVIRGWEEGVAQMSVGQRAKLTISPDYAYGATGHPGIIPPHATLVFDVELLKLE

Row | Molecule | Basal Activity | IC50
1 | ^316ATPF^319AVPI: Caspase-9 mutant (SEQ ID NOS 97 and 98) (SMAC/Diablo) (protein, UniProt P55211 1-416, looked up, variant T317V F319I) MDEADRRLLRRCRLRLVEELQVDQLWDALLSRELFRPHMIEDIQRAGSGSRRDQARQLIIDLETRGSQALPLFISCLEDTGQDMLASFLRTNRQAAKLSKPTLENLTPVVLRPEIRKPEVLRPETPRPVDIGSGGFGDVGALESLRGNADLAYILSMEPCGHCLIINNVNFCRESGLRTRTGSNIDCEKLRRRFSSLHFMVEVKGDLTAKKMVLALLELAQQDHGALDCCVVVILSHGCQASHLQFPGAVYGTDGCPVSVEKIVNIFNGTSCPSLGGKPKLFFIQACGGEQKDHGFEVASTSPEDESPGSNPEPDAVPIQEGLRTFDQLDAISSLPTPSDIFVSYSTFPGFVSWRDPKSGSWYVETLDDIFEQWAHSEDLQSLLLRVANAVSVKGIYKQMPGCFNFLRKKLFFKTS | Similar | Similar
2 | F404W (protein) GFGDVGALESLRGNADLAYILSMEPCGHCLIINNVNFCRESGLRTRTGSNIDCEKLRRRFSSLHFMVEVKGDLTAKKMVLALLELAQQDHGALDCCVVVILSHGCQASHLQFPGAVYGTDGCPVSVEKIVNIFNGTSCPSLGGKPKLFFIQACGGEQKDHGFEVASTSPEDESPGSNPEPDATPFQEGLRTFDQLDAISSLPTPSDIFVSYSTFPGFVSWRDPKSGSWYVETLDDIFEQWAHSEDLQSLLLRVANAVSVKGIYKQMPGCWNFLRKKLFFKTS | Decreased | much higher
3 | F319W (protein) GFGDVGALESLRGNADLAYILSMEPCGHCLIINNVNFCRESGLRTRTGSNIDCEKLRRRFSSLHFMVEVKGDLTAKKMVLALLELAQQDHGALDCCVVVILSHGCQASHLQFPGAVYGTDGCPVSVEKIVNIFNGTSCPSLGGKPKLFFIQACGGEQKDHGFEVASTSPEDESPGSNPEPDATPWQEGLRTFDQLDAISSLPTPSDIFVSYSTFPGFVSWRDPKSGSWYVETLDDIFEQWAHSEDLQSLLLRVANAVSVKGIYKQMPGCFNFLRKKLFFKTS | Decreased | much higher
4 | Y153F (protein) GFGDVGALESLRGNADLAFILSMEPCGHCLIINNVNFCRESGLRTRTGSNIDCEKLRRRFSSLHFMVEVKGDLTAKKMVLALLELAQQDHGALDCCVVVILSHGCQASHLQFPGAVYGTDGCPVSVEKIVNIFNGTSCPSLGGKPKLFFIQACGGEQKDHGFEVASTSPEDESPGSNPEPDATPFQEGLRTFDQLDAISSLPTPSDIFVSYSTFPGFVSWRDPKSGSWYVETLDDIFEQWAHSEDLQSLLLRVANAVSVKGIYKQMPGCFNFLRKKLFFKTS | Decreased | much higher
5 | C403A (protein) GFGDVGALESLRGNADLAYILSMEPCGHCLIINNVNFCRESGLRTRTGSNIDCEKLRRRFSSLHFMVEVKGDLTAKKMVLALLELAQQDHGALDCCVVVILSHGCQASHLQFPGAVYGTDGCPVSVEKIVNIFNGTSCPSLGGKPKLFFIQACGGEQKDHGFEVASTSPEDESPGSNPEPDATPFQEGLRTFDQLDAISSLPTPSDIFVSYSTFPGFVSWRDPKSGSWYVETLDDIFEQWAHSEDLQSLLLRVANAVSVKGIYKQMPGAFNFLRKKLFFKTS | Similar | Similar
6 | D315A (protein) GFGDVGALESLRGNADLAYILSMEPCGHCLIINNVNFCRESGLRTRTGSNIDCEKLRRRFSSLHFMVEVKGDLTAKKMVLALLELAQQDHGALDCCVVVILSHGCQASHLQFPGAVYGTDGCPVSVEKIVNIFNGTSCPSLGGKPKLFFIQACGGEQKDHGFEVASTSPEDESPGSNPEPAATPFQEGLRTFDQLDAISSLPTPSDIFVSYSTFPGFVSWRDPKSGSWYVETLDDIFEQWAHSEDLQSLLLRVANAVSVKGIYKQMPGCFNFLRKKLFFKTS | Decreased | much higher
7 | T317C (protein) GFGDVGALESLRGNADLAYILSMEPCGHCLIINNVNFCRESGLRTRTGSNIDCEKLRRRFSSLHFMVEVKGDLTAKKMVLALLELAQQDHGALDCCVVVILSHGCQASHLQFPGAVYGTDGCPVSVEKIVNIFNGTSCPSLGGKPKLFFIQACGGEQKDHGFEVASTSPEDESPGSNPEPDACPFQEGLRTFDQLDAISSLPTPSDIFVSYSTFPGFVSWRDPKSGSWYVETLDDIFEQWAHSEDLQSLLLRVANAVSVKGIYKQMPGCFNFLRKKLFFKTS | Similar | Similar
8 | N405T (protein) GFGDVGALESLRGNADLAYILSMEPCGHCLIINNVNFCRESGLRTRTGSNIDCEKLRRRFSSLHFMVEVKGDLTAKKMVLALLELAQQDHGALDCCVVVILSHGCQASHLQFPGAVYGTDGCPVSVEKIVNIFNGTSCPSLGGKPKLFFIQACGGEQKDHGFEVASTSPEDESPGSNPEPDATPFQEGLRTFDQLDAISSLPTPSDIFVSYSTFPGFVSWRDPKSGSWYVETLDDIFEQWAHSEDLQSLLLRVANAVSVKGIYKQMPGCFTFLRKKLFFKTS | Increased | –
9 | C403T (protein) GFGDVGALESLRGNADLAYILSMEPCGHCLIINNVNFCRESGLRTRTGSNIDCEKLRRRFSSLHFMVEVKGDLTAKKMVLALLELAQQDHGALDCCVVVILSHGCQASHLQFPGAVYGTDGCPVSVEKIVNIFNGTSCPSLGGKPKLFFIQACGGEQKDHGFEVASTSPEDESPGSNPEPDATPFQEGLRTFDQLDAISSLPTPSDIFVSYSTFPGFVSWRDPKSGSWYVETLDDIFEQWAHSEDLQSLLLRVANAVSVKGIYKQMPGTFNFLRKKLFFKTS | Similar | Similar
10 | Y153A (protein) GFGDVGALESLRGNADLAAILSMEPCGHCLIINNVNFCRESGLRTRTGSNIDCEKLRRRFSSLHFMVEVKGDLTAKKMVLALLELAQQDHGALDCCVVVILSHGCQASHLQFPGAVYGTDGCPVSVEKIVNIFNGTSCPSLGGKPKLFFIQACGGEQKDHGFEVASTSPEDESPGSNPEPDATPFQEGLRTFDQLDAISSLPTPSDIFVSYSTFPGFVSWRDPKSGSWYVETLDDIFEQWAHSEDLQSLLLRVANAVSVKGIYKQMPGCFNFLRKKLFFKTS | Decreased | much higher
11 | F406T (protein) GFGDVGALESLRGNADLAYILSMEPCGHCLIINNVNFCRESGLRTRTGSNIDCEKLRRRFSSLHFMVEVKGDLTAKKMVLALLELAQQDHGALDCCVVVILSHGCQASHLQFPGAVYGTDGCPVSVEKIVNIFNGTSCPSLGGKPKLFFIQACGGEQKDHGFEVASTSPEDESPGSNPEPDATPFQEGLRTFDQLDAISSLPTPSDIFVSYSTFPGFVSWRDPKSGSWYVETLDDIFEQWAHSEDLQSLLLRVANAVSVKGIYKQMPGCFNTLRKKLFFKTS | Decreased | much higher
12 | F319A (protein) GFGDVGALESLRGNADLAYILSMEPCGHCLIINNVNFCRESGLRTRTGSNIDCEKLRRRFSSLHFMVEVKGDLTAKKMVLALLELAQQDHGALDCCVVVILSHGCQASHLQFPGAVYGTDGCPVSVEKIVNIFNGTSCPSLGGKPKLFFIQACGGEQKDHGFEVASTSPEDESPGSNPEPDATPAQEGLRTFDQLDAISSLPTPSDIFVSYSTFPGFVSWRDPKSGSWYVETLDDIFEQWAHSEDLQSLLLRVANAVSVKGIYKQMPGCFNFLRKKLFFKTS | Similar | Similar
13 | A316G (protein) GFGDVGALESLRGNADLAYILSMEPCGHCLIINNVNFCRESGLRTRTGSNIDCEKLRRRFSSLHFMVEVKGDLTAKKMVLALLELAQQDHGALDCCVVVILSHGCQASHLQFPGAVYGTDGCPVSVEKIVNIFNGTSCPSLGGKPKLFFIQACGGEQKDHGFEVASTSPEDESPGSNPEPDGTPFQEGLRTFDQLDAISSLPTPSDIFVSYSTFPGFVSWRDPKSGSWYVETLDDIFEQWAHSEDLQSLLLRVANAVSVKGIYKQMPGCFNFLRKKLFFKTS | Decreased | much higher
14 | N405A (protein) GFGDVGALESLRGNADLAYILSMEPCGHCLIINNVNFCRESGLRTRTGSNIDCEKLRRRFSSLHFMVEVKGDLTAKKMVLALLELAQQDHGALDCCVVVILSHGCQASHLQFPGAVYGTDGCPVSVEKIVNIFNGTSCPSLGGKPKLFFIQACGGEQKDHGFEVASTSPEDESPGSNPEPDATPFQEGLRTFDQLDAISSLPTPSDIFVSYSTFPGFVSWRDPKSGSWYVETLDDIFEQWAHSEDLQSLLLRVANAVSVKGIYKQMPGCFAFLRKKLFFKTS | Similar | Similar
15 | P318A (protein) GFGDVGALESLRGNADLAYILSMEPCGHCLIINNVNFCRESGLRTRTGSNIDCEKLRRRFSSLHFMVEVKGDLTAKKMVLALLELAQQDHGALDCCVVVILSHGCQASHLQFPGAVYGTDGCPVSVEKIVNIFNGTSCPSLGGKPKLFFIQACGGEQKDHGFEVASTSPEDESPGSNPEPDATAFQEGLRTFDQLDAISSLPTPSDIFVSYSTFPGFVSWRDPKSGSWYVETLDDIFEQWAHSEDLQSLLLRVANAVSVKGIYKQMPGCFNFLRKKLFFKTS | Similar | Similar
16 | N405F (protein) GFGDVGALESLRGNADLAYILSMEPCGHCLIINNVNFCRESGLRTRTGSNIDCEKLRRRFSSLHFMVEVKGDLTAKKMVLALLELAQQDHGALDCCVVVILSHGCQASHLQFPGAVYGTDGCPVSVEKIVNIFNGTSCPSLGGKPKLFFIQACGGEQKDHGFEVASTSPEDESPGSNPEPDATPFQEGLRTFDQLDAISSLPTPSDIFVSYSTFPGFVSWRDPKSGSWYVETLDDIFEQWAHSEDLQSLLLRVANAVSVKGIYKQMPGCFFFLRKKLFFKTS | Decreased | much higher
17 | C403S (protein) GFGDVGALESLRGNADLAYILSMEPCGHCLIINNVNFCRESGLRTRTGSNIDCEKLRRRFSSLHFMVEVKGDLTAKKMVLALLELAQQDHGALDCCVVVILSHGCQASHLQFPGAVYGTDGCPVSVEKIVNIFNGTSCPSLGGKPKLFFIQACGGEQKDHGFEVASTSPEDESPGSNPEPDATPFQEGLRTFDQLDAISSLPTPSDIFVSYSTFPGFVSWRDPKSGSWYVETLDDIFEQWAHSEDLQSLLLRVANAVSVKGIYKQMPGSFNFLRKKLFFKTS | Similar | Similar
